Drawing on article PMC5074518, this text covers stoichiometry N for two substances.

Experiment [1] has as its target purine nucleoside phosphorylase from Kluyveromyces lactis, C-terminal 6xHis-tag variant (Kluyveromyces lactis). Put plainly: crystal structure; C-terminal 6xHis-tag variant, 8 mg/mL in 25 mM Tris-HCl, 100 mM NaCl, pH 8.0, mixed with 0.1 M sodium acetate trihydrate pH 4.6, 8% PEG4000; space group P6(1), 1.97 Å, three molecules in the asymmetric unit.
In experiment [2] the target is purine nucleoside phosphorylase from Kluyveromyces lactis, 6xHis-tagged, as used in analytical gel filtration (Kluyveromyces lactis). Put plainly: SEC; analytical size exclusion chromatography on a Superdex 200 Increase 10/300 GL column, calibrated with molecular weight marker proteins; single predominant peak at 12.5 mL. A general note: SEC sorts molecules by how far they enter the pores of the column.

As to “purine nucleoside phosphorylase from Kluyveromyces lactis, C-terminal 6xHis-tag variant (enzyme)”, in experiment [1], the stoichiometry N was 3.

In experiment [2], “purine nucleoside phosphorylase from Kluyveromyces lactis, 6xHis-tagged, as used in analytical gel filtration (enzyme)” yielded a stoichiometry N of 3.

In general, stoichiometry N refers to the number of molecules, sites or subunits per partner or assembly.
